Assay results as given in article PMC6472409, “Dishevelled-3 conformation dynamics analyzed by FRET-based biosensors reveals a key role of casein kinase 1” (Nature Communications, 2019).

What was measured:
Wnt/β-catenin pathway = assay: Dual Luciferase TopFlash/Renilla Reporter Assay; format: cell-based, human; conditions: for TopFlash relative to ctrl (= 1): Suppl. Fig. 2a; for TopFlash FlAsH III (CK1e-/-), relative to ctrl (= 1): Suppl. Fig. 4f; for TopFlash FlAsH III (CK1e-/-), relative to ctrl (= 1) / TopFlash in CK1e-/- relative to CK1e wt (= 1): CK1e-/- cells; for TopFlash relative to DVL3 wt (= 1) / TopFlash in CK1e-/- relative to CK1e wt (= 1): Fig 8d
Method: Cells were transfected 24 h after seeding with 0.1 μg of Super8X TopFlash construct, 0.1 μg of Renilla luciferase construct, and 0.1 μg of corresponding plasmids per well for 6 h in a 24-well plate. As for the ECFP-DVL3 FIII wt stable cell lines, transfection was followed by 4 h induction of tetracycline (1 µg/ml) and 8 h treatment of CM:DMEM (1:1 ratio). For performing this assay, Promega Dual Luciferase assay kit (Promega, #E1910) was used according to the manufacturer’s instructions. Luminescence was measured by a Hidex Bioscan Plate Chameleon Luminometer. Results are depicted as the ratio of TopFlash and Renilla signal (TopFlash fold induction), which was normalized for each experiment to certain control column (normalized TopFlash fold induction). Data were analyzed by MS Excel 2007 and GraphPad Prism 6 and results were shown as the means ± S.D. (number of experiments indicated ad hoc).

[1] = tested on: DVL3 membrane recruitment by FZD6 in HEK293 cells; assay: FZD6-dependent membrane recruitment of DVL3, immunofluorescence; format: cell-based, human; parameters: key to Non-recruited (DVL3 membrane recruitment): number of cells out of 100 positive cells scored; conditions: Fig 8c
Excerpt: First, we analyzed the preferred subcellular localization of DVL3 (as introduced in Fig. 2c)[10],[14]. […] Next, we investigated if DVL3 conformation correlates with the capacity of DVL3 to be recruited by FZD6, a key Wnt receptor, to the plasma membrane. For this purpose, we co-expressed FZD6 and analyzed membrane recruitment of DVL3 in FZD6-positive cells by immunofluorescence. Individual cells were categorized as: not recruited (Fig. 8b, no DVL3 in the membrane), partially recruited (clear membrane as well as cytoplasmic localization), and fully recruited (predominantly plasma membrane localization, Fig. 8c, left). […] In the last readout we analyzed the capacity of DVL3 to activate downstream Wnt/β-catenin pathway monitored by TopFlash reporter assay (Fig. 8d). […] On the other hand, under conditions that favor the open conformation both activation as well as inhibition of the Wnt/β-catenin pathway was evident.
For immunofluorescence, cells were seeded (40,000 per well) on 24-well plates with gelatin-coated coverslips and transfected, as indicated, with 0.1 μg of each corresponding plasmid (0.3 μg of mCherry-FZD6) for 6 h. For western blotting and Dual Luciferase TopFlash/Renilla Reporter Assay, cells were seeded (60,000 per well) directly on 24-well plates with 0.1 μg of each corresponding plasmid (if not indicated otherwise) for 6 h. For coimmunoprecipitation, cells were seeded (4.4 × 10^6) on 10-cm dishes and transfected with 1 μg of each corresponding plasmid. The next day after seeding, cells were transfected using polyethyleneimine (PEI) in a stoichiometry of 6 μl of PEI per 1 μg of DNA for 6 h and were harvested 24 h after transfection. The following plasmids used in HEK293 cells have been described previously: FLAG-DVL3 wt[47], CK1ϵ wt[48], mCherry-FZD6 (ref. [37]), and dominant-negative CK1ϵ P3 (ref. [33]). The ECFP-DVL3 wt plasmid was made by Gateway Technology (via LR recombination according to the manufacturer’s instructions; Thermo Fisher Scientific, #11791020) from the donor plasmid pDONR221 DVL3 (DNASU, #FLH178665.01x) and the destination plasmid pdECFP (LMBP, #4548). The HA-DVL3 wt plasmid was made by Gateway Technology from the donor plasmid pDONR221 DVL3 (DNASU, #FLH178665.01x) and the destination plasmid pcDNA3.1 N-term HA (gift from Erich Nigg).
Cells were seeded on gelatin-coated coverslips in 24-well plates and were transfected the next day. Cells were fixed 24 h later in fresh 4% paraformaldehyde, permeabilized with 0.5% Triton X-100, blocked with PBS/BSA/Triton/Azide buffer (PBTA) [3% (wt/vol) BSA, 0.25% Triton, 0.01% NaN3] for 1 h, and incubated overnight with primary antibodies (in dilution 1:500) in PBTA at 4 °C. The next day, the coverslips were washed in PBS and incubated with secondary antibodies conjugated to Alexa Fluor 488 (Invitrogen A11001) or/and Alexa Fluor 594 (Invitrogen A11058) (all in dilution 1:1000), washed with PBS [in case of samples containing FLAG-DVL3 WT and derived variants stained with DAPI (1:5000)], and all coverslips were mounted on microscopic slides. Cells were then visualized on an Olympus IX51 fluorescent microscope using ×40 air or ×100 oil objectives and/or an Olympus Fluoview 500 confocal laser scanning microscope IX71 using ×100 oil objective. One hundred positive cells per experiment (n = 3) were analyzed and scored according to their phenotype into two/three categories (punctae/even); or non-recruited/partially/fully recruited for FZD6-dependent recruitment of DVL3. The antibodies used were as follows: anti-FLAG M2 (Sigma-Aldrich, #F1804), anti-DVL3 (Santa Cruz, #sc-8027), anti-CK1ɛ (Santa Cruz, #sc-6471), anti-RFP (Chromotek, #5h9) and anti-GFP (Fitzgerald, #20R-GR-011).

[2] = sensor FlAsH III, replicate of grid row r5
[3] = sensor FlAsH III, replicate of grid row r6
[4] = sensor FlAsH III, replicate of grid row r7
[5] = panel of CK1e-/- comparison, wt cells, exp1
[6] = panel of CK1e-/- comparison, wt cells, exp3

With CK1e the “TopFlash relative to ctrl (= 1)” value (Wnt/β-catenin pathway; sensor FlAsH I, replicate of grid row r5) was 1.477, the “TopFlash relative to ctrl (= 1)” value (Wnt/β-catenin pathway; sensor FlAsH I, replicate of grid row r6) was 1.51 and the “TopFlash relative to ctrl (= 1)” value (Wnt/β-catenin pathway; sensor FlAsH I, replicate of grid row r7) was 1.233. For the same molecule, the “TopFlash relative to ctrl (= 1)” value (Wnt/β-catenin pathway; sensor FlAsH II, replicate of grid row r5) was 1.907, the “TopFlash relative to ctrl (= 1)” value (Wnt/β-catenin pathway; sensor FlAsH II, replicate of grid row r6) was 2.332 and the “TopFlash relative to ctrl (= 1)” value (Wnt/β-catenin pathway; sensor FlAsH II, replicate of grid row r7) was 1.874. For the same molecule, the “TopFlash relative to ctrl (= 1)” value (Wnt/β-catenin pathway; [2]) was 2.614, the “TopFlash relative to ctrl (= 1)” value (Wnt/β-catenin pathway; [3]) was 1.858 and the “TopFlash relative to ctrl (= 1)” value (Wnt/β-catenin pathway; [4]) was 2.849. The “TopFlash relative to ctrl (= 1)” value (Wnt/β-catenin pathway; sensor FlAsH IV, replicate of grid row r5) was 3.481, the “TopFlash relative to ctrl (= 1)” value (Wnt/β-catenin pathway; sensor FlAsH IV, replicate of grid row r6) was 2.7 and the “TopFlash relative to ctrl (= 1)” value (Wnt/β-catenin pathway; sensor FlAsH IV, replicate of grid row r7) was 1.4298. The “TopFlash FlAsH III (CK1e-/-), relative to ctrl (= 1)” value (Wnt/β-catenin pathway; [2]) was 2.409, the “TopFlash FlAsH III (CK1e-/-), relative to ctrl (= 1)” value (Wnt/β-catenin pathway; [3]) was 2.306 and the “TopFlash FlAsH III (CK1e-/-), relative to ctrl (= 1)” value (Wnt/β-catenin pathway; [4]) was 3.0297.

With Ck1e the “Fully recruited (DVL3 membrane recruitment)” value (from here on “Fully recruited”) ([1]; exp1) was 8, the “Non-recruited (DVL3 membrane recruitment)” value (“Non-recruited” below) ([1]; exp1) was 58 and the “Partially recruited (DVL3 membrane recruitment)” value (“Partially recruited” for short) ([1]; exp1) was 34. The “Fully recruited” value ([1]; exp2) was 43, the “Non-recruited” value ([1]; exp2) was 27 and the “Partially recruited” value ([1]; exp2) was 30. The “Fully recruited” value ([1]; exp3) was 15, the “Non-recruited” value ([1]; exp3) was 63 and the “Partially recruited” value ([1]; exp3) was 22. The “TopFlash relative to DVL3 wt (= 1)” value (Wnt/β-catenin pathway; replicate of grid row r4) was 2.8, the “TopFlash relative to DVL3 wt (= 1)” value (Wnt/β-catenin pathway; replicate of grid row r5) was 2.5 and the “TopFlash relative to DVL3 wt (= 1)” value (Wnt/β-catenin pathway; replicate of grid row r6) was 1.85.

B1: DVL3 wt (protein, UniProt Q92997 1-716, looked up)
Segment polarity protein …: MGETKIIYHLDGQETPYLVKLPLPAERVTLADFKGVLQRPSYKFFFKSMDDDFGVVKEEISDDNAKLPCFNGRVVSWLVSAEGSHPDPAPFCADNPSELPPPMERTGGIGDSRPPSFHPHAGGGSQENLDNDTETDSLVSAQRERPRRRDGPEHATRLNGTAKGERRREPGGYDSSSTLMSSELETTSFFDSDEDDSTSRFSSSTEQSSASRLMRRHKRRRRKQKVSRIERSSSFSSITDSTMSLNIITVTLNMEKYNFLGISIVGQSNERGDGGIYIGSIMKGGAVAADGRIEPGDMLLQVNEINFENMSNDDAVRVLREIVHKPGPITLTVAKCWDPSPRGCFTLPRSEPIRPIDPAAWVSHTAAMTGTFPAYGMSPSLSTITSTSSSITSSIPDTERLDDFHLSIHSDMAAIVKAMASPESGLEVRDRMWLKITIPNAFIGSDVVDWLYHNVEGFTDRREARKYASNLLKAGFIRHTVNKITFSEQCYYIFGDLCGNMANLSLHDHDGSSGASDQDTLAPLPHPGAAPWPMAFPYQYPPPPHPYNPHPGFPELGYSYGGGSASSQHSEGSRSSGSNRSGSDRRKEKDPKAGDSKSGGSGSESDHTTRSSLRGPRERAPSERSGPAASEHSHRSHHSLASSLRSHHTHPSYGPPGVPPLYGPPMLMMPPPPAAMGPPGAPPGRDLASVPPELTASRQSFRMAMGNPSEFFVDVM
B1 was tested, and the “Fully recruited” value ([1]; CK1e-/- cells, exp1) was 31, the “Non-recruited” value ([1]; CK1e-/- cells, exp1) was 33 and the “Partially recruited” value ([1]; CK1e-/- cells, exp1) was 36. The “Fully recruited” value ([1]; CK1e-/- cells, exp2) was 16, the “Non-recruited” value ([1]; CK1e-/- cells, exp2) was 44 and the “Partially recruited” value ([1]; CK1e-/- cells, exp2) was 40. For the same molecule, the “Fully recruited” value ([1]; CK1e-/- cells, exp3) was 26, the “Non-recruited” value ([1]; CK1e-/- cells, exp3) was 50 and the “Partially recruited” value ([1]; CK1e-/- cells, exp3) was 24. The “Fully recruited” value ([1]; exp1) was 11, the “Non-recruited” value ([1]; exp1) was 58 and the “Partially recruited” value ([1]; exp1) was 31. For the same molecule, the “Fully recruited” value ([1]; exp2) was 20, the “Non-recruited” value ([1]; exp2) was 34 and the “Partially recruited” value ([1]; exp2) was 46. For the same molecule, the “Fully recruited” value ([1]; exp3) was 22, the “Non-recruited” value ([1]; exp3) was 48 and the “Partially recruited” value ([1]; exp3) was 30. For the same molecule, the “Fully recruited” value [1, 5] was 8, the “Non-recruited” value [1, 5] was 65 and the “Partially recruited” value [1, 5] was 27. For the same molecule, the “Fully recruited” value [1, 6] was 20, the “Non-recruited” value [1, 6] was 51 and the “Partially recruited” value [1, 6] was 29. The “TopFlash in CK1e-/- relative to CK1e wt (= 1)” value (Wnt/β-catenin pathway; replicate of grid row r4) was 0.2303, the “TopFlash in CK1e-/- relative to CK1e wt (= 1)” value (Wnt/β-catenin pathway; replicate of grid row r5) was 0.1152 and the “TopFlash in CK1e-/- relative to CK1e wt (= 1)” value (Wnt/β-catenin pathway; replicate of grid row r6) was 0.24. The “TopFlash in CK1e-/- relative to CK1e wt (= 1)” value (Wnt/β-catenin pathway; replicate of grid row r7) was 0.2094.
